Tests used:
CNCCc1c[nH]c2ccc(O)cc12 = assay: cells, lysate or membranes; conditions: pH 7.4;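 as to Uptake Ratio by Transporter SERT: incubation at 37 °C, intracellular compound quantified by HPLC-MS/MS after cell lysis, uptake normalized to total protein measured by bicinchoninic acid assay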;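 as to Uptake Ratio by Transporter SERT: ratio of uptake in SERT cells over empty-vector control cells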
[1] = tested on: CN[C@@H]1CCc2[nH]c3ccc(C(N)=O)cc3c2C1; assay: cells, lysate or membranes; conditions: other: SERT; concentration-dependent net uptake, Michaelis–Menten; pH 7.4;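 as to Uptake Ratio by Transporter SERT: incubation at 37 °C, intracellular compound quantified by HPLC-MS/MS after cell lysis, uptake normalized to total protein measured by bicinchoninic acid assay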;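 as to Uptake Ratio by Transporter SERT: ratio of uptake in SERT cells over empty-vector control cells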
N=C(N)NCc1cccc(I)c1 = assay: cells, lysate or membranes; conditions: other: SERT; concentration-dependent net uptake, Michaelis–Menten; pH 7.4;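 as to Uptake Ratio by Transporter SERT: incubation at 37 °C, intracellular compound quantified by HPLC-MS/MS after cell lysis, uptake normalized to total protein measured by bicinchoninic acid assay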;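 as to Uptake Ratio by Transporter SERT: ratio of uptake in SERT cells over empty-vector control cells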
NCCc1c[nH]c2ccccc12 = assay: cells, lysate or membranes; conditions: other: SERT; concentration-dependent net uptake, Michaelis–Menten; pH 7.4;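 as to Uptake Ratio by Transporter SERT: ratio of uptake in SERT cells over empty-vector control cells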
NET [2] = tested on: NET; parameters: method as in PMID 31265842; conditions: cited from earlier work
DAT [3] = tested on: DAT; parameters: method as in PMID 31265842; conditions: cited from earlier work
NET [4] = target: NET (Homo sapiens, UniProt P23975); assay: Uptake into HEK293 cells overexpressing NET (uptake ratio and concentration-dependent uptake); conditions: intrinsic clearance, quotient of vmax and Km
Sequence of NET (Homo sapiens, UniProt P23975) (P23975 whole entry): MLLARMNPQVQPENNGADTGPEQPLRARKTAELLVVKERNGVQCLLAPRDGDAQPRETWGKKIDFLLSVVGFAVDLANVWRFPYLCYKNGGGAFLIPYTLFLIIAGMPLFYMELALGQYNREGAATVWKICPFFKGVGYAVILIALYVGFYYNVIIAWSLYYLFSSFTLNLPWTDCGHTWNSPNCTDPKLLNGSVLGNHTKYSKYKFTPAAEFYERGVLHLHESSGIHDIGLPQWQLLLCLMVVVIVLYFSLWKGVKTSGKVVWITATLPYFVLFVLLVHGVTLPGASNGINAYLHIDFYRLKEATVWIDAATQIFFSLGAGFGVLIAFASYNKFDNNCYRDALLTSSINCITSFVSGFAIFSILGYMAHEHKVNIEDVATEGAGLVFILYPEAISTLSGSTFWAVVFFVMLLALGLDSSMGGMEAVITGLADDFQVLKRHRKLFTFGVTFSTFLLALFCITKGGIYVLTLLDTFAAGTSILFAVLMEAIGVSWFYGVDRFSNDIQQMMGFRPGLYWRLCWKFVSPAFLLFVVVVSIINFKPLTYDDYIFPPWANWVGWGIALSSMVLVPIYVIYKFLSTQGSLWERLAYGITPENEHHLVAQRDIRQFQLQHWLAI

DAT [5] = target: DAT (Homo sapiens, UniProt Q01959); assay: Uptake into HEK293 cells overexpressing DAT (uptake ratio and concentration-dependent uptake); conditions: for Clint ± SEM: intrinsic clearance, quotient of vmax and Km
SERT = SERT (Homo sapiens, UniProt P31645); assay: Uptake into HEK293 cells overexpressing SERT (uptake ratio and concentration-dependent uptake);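 also: incubation at 37 °C, intracellular compound quantified by HPLC-MS/MS after cell lysis, uptake normalized to total protein measured by bicinchoninic acid assay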
Sequence of SERT (P31645 whole entry): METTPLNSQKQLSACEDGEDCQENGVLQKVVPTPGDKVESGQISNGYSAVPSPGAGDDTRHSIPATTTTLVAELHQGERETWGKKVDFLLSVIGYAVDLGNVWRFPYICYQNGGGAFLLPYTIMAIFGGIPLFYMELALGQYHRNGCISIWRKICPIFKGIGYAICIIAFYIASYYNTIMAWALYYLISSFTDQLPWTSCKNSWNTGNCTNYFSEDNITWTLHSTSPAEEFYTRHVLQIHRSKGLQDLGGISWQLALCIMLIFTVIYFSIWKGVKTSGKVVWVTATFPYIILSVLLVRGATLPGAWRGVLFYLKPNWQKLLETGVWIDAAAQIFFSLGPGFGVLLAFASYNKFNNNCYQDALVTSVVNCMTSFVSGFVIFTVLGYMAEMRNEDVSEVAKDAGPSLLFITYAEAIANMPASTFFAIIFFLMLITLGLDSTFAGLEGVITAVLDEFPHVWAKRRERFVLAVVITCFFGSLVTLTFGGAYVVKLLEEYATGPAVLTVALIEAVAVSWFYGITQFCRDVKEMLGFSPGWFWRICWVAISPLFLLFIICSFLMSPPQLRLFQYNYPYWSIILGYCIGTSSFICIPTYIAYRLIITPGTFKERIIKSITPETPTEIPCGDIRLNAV

OCT1 = target: T1, OCT1 (Homo sapiens, UniProt O15245); assay: Uptake into HEK293 cells overexpressing OCT1 (uptake ratio and concentration-dependent uptake); conditions: intrinsic clearance, quotient of vmax and Km
T1 sequence (O15245 1-554): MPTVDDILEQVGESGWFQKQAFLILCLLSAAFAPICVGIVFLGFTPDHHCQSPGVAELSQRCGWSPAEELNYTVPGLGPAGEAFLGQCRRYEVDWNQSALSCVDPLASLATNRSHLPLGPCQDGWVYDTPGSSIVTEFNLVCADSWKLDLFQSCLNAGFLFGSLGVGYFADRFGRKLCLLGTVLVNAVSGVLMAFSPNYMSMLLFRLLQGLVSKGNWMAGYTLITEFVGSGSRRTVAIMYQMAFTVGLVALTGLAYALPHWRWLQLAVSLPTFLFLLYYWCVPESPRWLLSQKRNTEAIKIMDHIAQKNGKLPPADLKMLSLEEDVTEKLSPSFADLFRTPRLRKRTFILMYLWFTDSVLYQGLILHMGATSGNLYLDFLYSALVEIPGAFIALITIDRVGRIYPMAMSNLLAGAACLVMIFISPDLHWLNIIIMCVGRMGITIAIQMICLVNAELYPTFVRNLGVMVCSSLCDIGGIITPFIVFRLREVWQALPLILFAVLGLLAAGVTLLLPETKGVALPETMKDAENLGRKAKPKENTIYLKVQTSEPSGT

OCT2 = target: T2, OCT2 (Homo sapiens, UniProt O15244); assay: Uptake into HEK293 cells overexpressing OCT2 (uptake ratio and concentration-dependent uptake); conditions: intrinsic clearance, quotient of vmax and Km
T2 sequence (O15244 1-555): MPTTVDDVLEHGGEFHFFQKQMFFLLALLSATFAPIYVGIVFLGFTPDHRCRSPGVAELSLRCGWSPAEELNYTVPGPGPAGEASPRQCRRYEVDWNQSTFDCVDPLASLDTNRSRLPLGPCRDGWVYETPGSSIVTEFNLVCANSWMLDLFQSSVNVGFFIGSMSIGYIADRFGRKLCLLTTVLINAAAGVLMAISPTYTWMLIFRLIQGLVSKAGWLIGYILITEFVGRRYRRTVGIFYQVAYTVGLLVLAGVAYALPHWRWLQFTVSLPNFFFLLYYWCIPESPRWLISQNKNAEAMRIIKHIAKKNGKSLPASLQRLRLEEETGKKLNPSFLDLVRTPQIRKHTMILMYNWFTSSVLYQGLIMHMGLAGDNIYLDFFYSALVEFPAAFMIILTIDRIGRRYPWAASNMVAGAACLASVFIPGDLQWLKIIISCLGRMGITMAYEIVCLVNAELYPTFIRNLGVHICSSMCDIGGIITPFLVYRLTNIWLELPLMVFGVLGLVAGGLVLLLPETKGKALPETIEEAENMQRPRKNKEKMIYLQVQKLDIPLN

OCT3 = target: T3, OCT3 (Homo sapiens, UniProt O75751); assay: Uptake into HEK293 cells overexpressing OCT3 (uptake ratio and concentration-dependent uptake); conditions: intrinsic clearance, quotient of vmax and Km
T3 sequence (O75751 1-556): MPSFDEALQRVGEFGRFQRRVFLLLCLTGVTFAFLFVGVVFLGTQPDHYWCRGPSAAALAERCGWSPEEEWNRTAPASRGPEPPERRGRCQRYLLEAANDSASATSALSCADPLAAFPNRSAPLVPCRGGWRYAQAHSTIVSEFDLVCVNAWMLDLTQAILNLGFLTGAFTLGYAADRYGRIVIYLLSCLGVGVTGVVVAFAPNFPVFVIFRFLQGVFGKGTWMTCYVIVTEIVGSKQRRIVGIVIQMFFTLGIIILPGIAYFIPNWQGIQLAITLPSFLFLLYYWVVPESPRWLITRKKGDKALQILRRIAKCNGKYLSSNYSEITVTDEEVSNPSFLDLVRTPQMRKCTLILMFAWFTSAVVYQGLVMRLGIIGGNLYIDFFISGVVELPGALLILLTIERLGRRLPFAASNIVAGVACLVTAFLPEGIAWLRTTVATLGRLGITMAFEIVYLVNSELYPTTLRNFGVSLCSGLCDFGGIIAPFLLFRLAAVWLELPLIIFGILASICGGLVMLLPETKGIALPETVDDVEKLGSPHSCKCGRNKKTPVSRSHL

[6] = substrate: CNCCc1c[nH]c2ccc(O)cc12; assay: cells, lysate or membranes; conditions: other: DAT; concentration-dependent net uptake, Michaelis–Menten; pH 7.4
[7] = substrate: N=C(N)NCc1cccc(I)c1; assay: cells, lysate or membranes; conditions: other: DAT; concentration-dependent net uptake, Michaelis–Menten; pH 7.4
[8] = substrate: NCCc1c[nH]c2ccc(O)cc12; assay: cells, lysate or membranes; conditions: other: DAT; concentration-dependent net uptake, Michaelis–Menten; pH 7.4
[9] = substrate: NCCc1ccc(O)c(O)c1; assay: cells, lysate or membranes; conditions: other: DAT; concentration-dependent net uptake, Michaelis–Menten; pH 7.4
[10] = substrate: NCCc1ccccc1; assay: cells, lysate or membranes; conditions: other: DAT; concentration-dependent net uptake, Michaelis–Menten; pH 7.4

SERT (Homo sapiens)
Km (CNCCc1c[nH]c2ccc(O)cc12): 4.065 ± 1.829 µM | Vmax (CNCCc1c[nH]c2ccc(O)cc12): 1373.0 pmol × mg Protein^−1 × min^−1 | Km [1]: 26.51 µM | Vmax [1]: 1020 pmol × mg Protein^−1 × min^−1 | Km (N=C(N)NCc1cccc(I)c1): 11.2 ± 6.2 µM | Vmax (N=C(N)NCc1cccc(I)c1): 0.000429 µmol/min/mg | Vmax/Km (N=C(N)NCc1cccc(I)c1): 38.2 µL/min/mg | Km (NCCc1c[nH]c2ccccc12): 29.0 µM | Vmax (NCCc1c[nH]c2ccccc12): 634.6 pmol × mg Protein^−1 × min^−1

NCCc1ccccc1 [Phenylethylamine]
NET inhibition IC50 (NET [2]): low micromolar range | DAT inhibition IC50 (DAT [3]): low micromolar range | Clint ± SEM (NET [4]): 3.4 mL × g Protein^−1 × min^−1 | Clint ± SEM (DAT [5]): 2.1 mL × g Protein^−1 × min^−1 | Uptake Ratio by Transporter SERT (SERT): 1.71

NC(N)=NCc1cccc(I)c1 [mIBG, meta-iodobenzylguanidine, reference compound]
Clint ± SEM (NET [4]): 284 mL × g Protein^−1 × min^−1 | Clint ± SEM (NET [4]; listed as meta-iodobenzylguanidine): 284.6 ± 84.2 mL × g Protein^−1 × min^−1 | Vmax ± SEM (DAT [5]; concentration-dependent net uptake, Michaelis–Menten): 2800 pmol × mg Protein^−1 × min^−1 | Clint ± SEM (DAT [5]): 229 ± 33.8 mL × g Protein^−1 × min^−1 | Clint ± SEM (OCT1): 138 ± 38.5 mL × g Protein^−1 × min^−1 | Clint ± SEM (OCT2): 152 ± 34.1 mL × g Protein^−1 × min^−1 | Clint ± SEM (OCT3): 161 ± 35.7 mL × g Protein^−1 × min^−1 | Clint ± SEM (SERT; SERT, intrinsic clearance, quotient of vmax and Km): 38.2 ± 25.9 mL × g Protein^−1 × min^−1

B1: DAT (Homo sapiens) (protein)
chain: MSKSKCSVGLMSSVVAPAKEPNAVGPKEVELILVKEQNGVQLTSSTLTNPRQSPVEAQDRETWGKKIDFLLSVIGFAVDLANVWRFPYLCYKNGGGAFLVPYLLFMVIAGMPLFYMELALGQFNREGAAGVWKICPILKGVGFTVILISLYVGFFYNVIIAWALHYLFSSFTTELPWIHCNNSWNSPNCSDAHPGDSSGDSSGLNDTFGTTPAAEYFERGVLHLHQSHGIDDLGPPRWQLTACLVLVIVLLYFSLWKGVKTSGKVVWITATMPYVVLTALLLRGVTLPGAIDGIRAYLSVDFYRLCEASVWIDAATQVCFSLGVGFGVLIAFSSYNKFTNNCYRDAIVTTSINSLTSFSSGFVVFSFLGYMAQKHSVPIGDVAKDGPGLIFIIYPEAIATLPLSSAWAVVFFIMLLTLGIDSAMGGMESVITGLIDEFQLLHRHRELFTLFIVLATFLLSLFCVTNGGIYVFTLLDHFAAGTSILFGVLIEAIGVAWFYGVGQFSDDIQQMTGQRPSLYWRLCWKLVSPCFLLFVVVVSIVTFRPPHYGAYIFPDWANALGWVIATSSMAMVPIYAAYKFCSLPGSFREKLAYAIAPEKDRELVDRGEVRQFTLRHWLKV
Km [6]: 43.82 ± 14.39 µM | Vmax [6]: 3560 pmol × mg Protein^−1 × min^−1 | Km [7]: 12.2 ± 1.46 µM | Vmax [7]: 0.0028 µmol/min/mg | Vmax/Km [7]: 229 µL/min/mg | Km [8]: 50.50 µM | Vmax [8]: 3908 pmol × mg Protein^−1 × min^−1 | Km [9]: 25.1 µM | Vmax [9]: 1977 pmol × mg Protein^−1 × min^−1 | Km [10]: 156 µM | Vmax [10]: 325 pmol × mg Protein^−1 × min^−1

From publication PMC8657982, “Overlap and Specificity in the Substrate Spectra of Human Monoamine Transporters and Organic Cation Transporters 1, 2, and 3” (International Journal of Molecular Sciences, 2021)
